In the supplement of paper PMC9233669 one finds self-aminoacylation data, which are given here for 47 sequences.

The test system of data set [1] is biotinyl-Phe-oxazolone. Nature of the data set: self-aminoacylation, catalytic enhancement (BFO) (fold over background); higher = more active; k-Seq, kA / k0A0; sequences stand for … in GGGAAUGGAUCCACAUCUACGAAUUC…UUCACUGCAGACUUGACGAAGCUG
In outline: (§1)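 Each biotinyl-aminoacyl-oxazolone, at 2–1250 μM, was incubated with mutagenized RNA pools (0.43 μM) carrying a 21-nt variable region. The 50 μL reactions contained HEPES/NaCl/KCl/MgCl2/CaCl2 buffer with 5% acetonitrile at pH 6.9–7.0 and ran for 90 minutes at room temperature. After streptavidin capture, RNA was measured by qPCR in triplicate and by Illumina sequencing, and catalytic enhancement was calculated as median kA over the uncatalyzed rate from a pseudo-first-order fit of per-sequence fraction reacted.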

Data set [2] concerns biotinyl-Trp-oxazolone. Nature of the data set: self-aminoacylation, catalytic enhancement (BWO) (fold over background); higher = more active; k-Seq, kA / k0A0; sequences stand for … in GGGAAUGGAUCCACAUCUACGAAUUC…UUCACUGCAGACUUGACGAAGCUG
The procedure, abridged: as §1

The subject of data set [3] is biotinyl-Leu-oxazolone. In words: self-aminoacylation, catalytic enhancement (BLO) (fold over background); higher = more active; k-Seq, kA / k0A0; sequences stand for … in GGGAAUGGAUCCACAUCUACGAAUUC…UUCACUGCAGACUUGACGAAGCUG
In outline:
as §1

Data set [4] deals with biotinyl-Met-oxazolone. In words: self-aminoacylation, catalytic enhancement (BMO) (fold over background); higher = more active; k-Seq, kA / k0A0; sequences stand for … in GGGAAUGGAUCCACAUCUACGAAUUC…UUCACUGCAGACUUGACGAAGCUG
In outline:
as §1

Variants at the floor of the assay were thinned out.

For “ACCUUUGCUAAUAGUCGCAAG [Fam3.1 aminoacylation ribozyme variant]”, the self-aminoacylation in data set [1] is 2.02; in data set [2], 2.06; in data set [3] it was 2.31.

In the case of “AAGUCUGCUAACAGUCGCAAG [Fam3.1 aminoacylation ribozyme variant]”, the self-aminoacylation in data set [1] worked out at 28.4; in data set [2], 7.03; in data set [4], 2.09.

On to “CGACUUCAAGCAAUCGGUCUG [Fam1A.1 aminoacylation ribozyme variant]”, for which the self-aminoacylation in data set [1] was determined as 26.6; in data set [2], 20.1; in data set [3], 2.13.

Consider “CCACUUCAAACAAUCGGUCUU [Fam1A.1 aminoacylation ribozyme variant]”, for which the self-aminoacylation is 40.9 in data set [1], 25.2 in data set [2] and 2.11 in data set [3].

On to “AAGUUUGCCAAUAGUCGCAAA [Fam3.1 aminoacylation ribozyme variant]”, for which the self-aminoacylation in data set [1] worked out at 2.47; in data set [4], 2.37.

In the case of “CAGUUUGCUAAUAGUCGCAUG [Fam3.1 aminoacylation ribozyme variant]”, the self-aminoacylation in data set [1] turned out to be 2.84; in data set [2], 2.07; in data set [3] it was 2.08.

For “UAGUUUGCUAAUAGUCGCGAG [Fam3.1 aminoacylation ribozyme variant]”, the figures for the self-aminoacylation in data set [1], in data set [2] and in data set [3] were 2.58, 2.02 and 2.08, respectively.

“AUUCACUUAGGUCAUAGGGUG [Fam2.2 aminoacylation ribozyme variant]”: the self-aminoacylation worked out at 3.24 in data set [1] and 2.08 in data set [3].

Consider “AUUACCCUGGUCAUCGUGCGA [Fam2.1 aminoacylation ribozyme variant]”, for which the values for the self-aminoacylation in data set [1], in data set [2] and in data set [3] were 9.74, 2.28 and 2.14, respectively.

With “CGACUUCAAACAAUCGGUCUG [Fam1A.1 aminoacylation ribozyme variant]”, the self-aminoacylation in data set [1] was found to be 102; in data set [2], 44.4; in data set [3] it was 2.66.

In the case of “AUUACCCUGGUCGUCGAGCGA [Fam2.1 aminoacylation ribozyme variant]”, the self-aminoacylation was 3.35 in data set [1] and 2.17 in data set [3].

Turning to “CCACACUUCAGCCAAUCGGUC [Fam1B.1 aminoacylation ribozyme variant]”, the self-aminoacylation was 2.11 in data set [2] and 2.27 in data set [3].

Turning to “AAGUUUGCUAAUAGUCGAAAA [Fam3.1 aminoacylation ribozyme variant]”, in data set [4], the self-aminoacylation was 2.08.

On to “AUUCAUCUAGGUCAUCAGGUG [Fam2.2 aminoacylation ribozyme variant]”, for which the self-aminoacylation in data set [1] is 2.89; in data set [2], 2.07; in data set [4], 2.23.

Regarding “AUUCACAUAGGUCGUCGGGUG [Fam2.2 aminoacylation ribozyme variant]”, the figures for the self-aminoacylation in data set [1] and in data set [3] were 7.92 and 2.07, respectively.

With “AUUCACCUAGUUCAUCGGGGG [Fam2.2 aminoacylation ribozyme variant]”, the self-aminoacylation in data set [1] worked out at 6.17; in data set [3], 2.23.

For the sequence “CAACUUCAAACAAUCGGUCUG [Fam1A.1 aminoacylation ribozyme variant]”, the self-aminoacylation in data set [1] amounted to 97.7; in data set [2] it was 44.8; in data set [3], 2.61.

Take “CCCCACUUCAAUCAAUCGGUC [Fam1B.1 aminoacylation ribozyme variant]”: the self-aminoacylation in data set [1] was 37.1; in data set [2] it was 31; in data set [3], 2.28.

Turning to “AAGUUGGCUAAUUGUCGCAAG [Fam3.1 aminoacylation ribozyme variant]”, the figures for the self-aminoacylation in data set [1], in data set [2] and in data set [3] were 2.94, 2.71 and 2.41, respectively.

On to “ACUACCCUGGUCAUCGAGAGA [Fam2.1 aminoacylation ribozyme variant]”, for which the self-aminoacylation in data set [4] is 2.02.

For “CCACACUUCAACCGAUCGGUC [Fam1B.1 aminoacylation ribozyme variant]”, the self-aminoacylation in data set [1] was found to be 3.75; in data set [2], 5.96.

As to “CUACUUCAAACAAUCGGUCAC [Fam1A.1 aminoacylation ribozyme variant]”, the self-aminoacylation in data set [1] was determined as 23.1; in data set [2] it was 8.51.

“AAGUUUGCUAAUGGUCGCAAA [Fam3.1 aminoacylation ribozyme variant]”: the self-aminoacylation is 2.48 in data set [1] and 2.87 in data set [2].

In the case of “AAGUUAGCUAAAAGUCGCAAG [Fam3.1 aminoacylation ribozyme variant]”, the self-aminoacylation amounted to 2.41 in data set [1] and 2.01 in data set [3].

Turning to “CUACUUCAACCAAUCGGCCUG [Fam1A.1 aminoacylation ribozyme variant]”, the self-aminoacylation in data set [1] was 47.8; in data set [2] it was 42.2; in data set [3], 2.86.

On to “CCUCUCUUCAAGCAAUCGGUC [Fam1B.1 aminoacylation ribozyme variant]”, for which the self-aminoacylation in data set [1] came out at 36.3; in data set [2] it was 20.

As for “AUUACCAUGGUCAUCGAGGGA [Fam2.1 aminoacylation ribozyme variant]”, the results for the self-aminoacylation in data set [1] and in data set [2] were 2.21 and 2.58, respectively.

As to “UAGUUUGUUAAUAGUCGCAAG [Fam3.1 aminoacylation ribozyme variant]”, the self-aminoacylation in data set [1] amounted to 3.23; in data set [3], 2.05.

In the case of “GUACUUCAAACAAUCGGUCCG [Fam1A.1 aminoacylation ribozyme variant]”, the values for the self-aminoacylation in data set [1] and in data set [2] were 6.11 and 3.6, respectively.

For “AUUCAUCUAGCUCAUCGGGUG [Fam2.2 aminoacylation ribozyme variant]”, the self-aminoacylation in data set [2] worked out at 2.3; in data set [4] it was 2.12.

In the case of “CUACUUACAACAAUCGGUCUG [Fam1A.1 aminoacylation ribozyme variant]”, the self-aminoacylation in data set [1] was 3.29; in data set [2], 2.34.

Regarding “CCACACCUCAAUCAAUCGGUC [Fam1B.1 aminoacylation ribozyme variant]”, the self-aminoacylation is 3.88 in data set [1] and 2.88 in data set [2].

Consider “CUAGUUCCAACAAUCGGUCUG [Fam1A.1 aminoacylation ribozyme variant]”, for which the self-aminoacylation in data set [1] came out at 9.79; in data set [2], 9.72.

“CUACUUCAAACAAUCGGUCUU [Fam1A.1 aminoacylation ribozyme variant]”: the self-aminoacylation is 31.2 in data set [1] and 15.3 in data set [2].

As for “CGACUUCAAACAAUCGGUCUA [Fam1A.1 aminoacylation ribozyme variant]”, the values for the self-aminoacylation in data set [1] and in data set [2] were 12.7 and 6.02, respectively.

As to “CAACUUCAAACAAUCUGUCUG [Fam1A.1 aminoacylation ribozyme variant]”, the self-aminoacylation worked out at 4.35 in data set [1] and 2.14 in data set [2].

Turning to “UAGUUUGCUAAUAGUCGUAAG [Fam3.1 aminoacylation ribozyme variant]”, the self-aminoacylation in data set [1] was 17.9; in data set [2], 4.18.

Turning to “CAACUUCAAACAAUCGGUCAG [Fam1A.1 aminoacylation ribozyme variant]”, the self-aminoacylation in data set [1] was found to be 19.5; in data set [2], 11.9.

Take “CUACACUUCAAUCAAUCGGUC [Fam1B.1 aminoacylation ribozyme variant]”: the self-aminoacylation in data set [1] was 37.4; in data set [2], 18.5.

With “CCACUUCAAAAAAUCGGUCUG [Fam1A.1 aminoacylation ribozyme variant]”, the self-aminoacylation in data set [1] worked out at 15.2; in data set [2], 12.1.

Regarding “CUACUUCAAACAAUCGGUUUC [Fam1A.1 aminoacylation ribozyme variant]”, the self-aminoacylation in data set [1] is 4.72; in data set [2] it was 2.18.

With “AUUCACCUAGUUCAUCGGGUA [Fam2.2 aminoacylation ribozyme variant]”, the self-aminoacylation was 5.42 in data set [1] and 2.37 in data set [2].

On to “UUACUUCAAACAAUCGGUCUA [Fam1A.1 aminoacylation ribozyme variant]”, for which the self-aminoacylation in data set [1] was found to be 6.02; in data set [2], 2.61.

Regarding “CACCUUCAAACAAUCGGUCUG [Fam1A.1 aminoacylation ribozyme variant]”, the self-aminoacylation came to 98.1 in data set [1], 43.9 in data set [2] and 2.61 in data set [3].

Consider “CCACUUCAAACAUUCGGUCUG [Fam1A.1 aminoacylation ribozyme variant]”, for which the self-aminoacylation amounted to 5.58 in data set [1] and 2.73 in data set [2].

In the case of “CCCCACUUAAAGCAAUCGGUC [Fam1B.1 aminoacylation ribozyme variant]”, the self-aminoacylation was found to be 2.09 in data set [1] and 2.05 in data set [2].

On to “CCACACUUCAAGUAAUCGGUC [Fam1B.1 aminoacylation ribozyme variant]”, for which the self-aminoacylation in data set [1] turned out to be 16.4; in data set [2], 9.7.
